Reference: publication PMC4344510
Like-named read-outs stand apart in the source and are kept apart here.

Tests used:
Hfq65 R16A/R17A = Hfq65 R16A/R17A (Escherichia coli, UniProt P0A6X3 1-65, R16A;R17A); assay: NMR
Hfq F42S = Hfq F42S (Escherichia coli, UniProt P0A6X3 1-102, F42S); assay: fluorescence polarization
Hfq N28A [1] = target: T1, Hfq N28A (Escherichia coli, UniProt P0A6X3 1-102, N28A); assay: fluorescence polarization
Hfq WT [2] = target: T2, Hfq WT (Escherichia coli, UniProt P0A6X3 1-102); assay: fluorescence polarization
Hfq N48A [3] = target: T3, Hfq N48A (Escherichia coli, UniProt P0A6X3 1-102, N48A); assay: fluorescence polarization
Hfq N28A [4] = target: T1, Hfq N28A; assay: fluorescence polarization; remark: listed apart in the source
Hfq WT [5] = target: T2, Hfq WT; assay: fluorescence polarization; remark: listed apart in the source
Hfq N28A [6] = target: T1, Hfq N28A; assay: fluorescence polarization; remark: listed apart in the source
Hfq N48A [7] = target: T3, Hfq N48A; assay: fluorescence polarization; remark: listed apart in the source

| Binder | binding result (Hfq65 R16A/R17A) | binding result (Hfq F42S) | Kd (Hfq WT [2]) [nM] | Kd (Hfq N48A [3]) [nM] | other results |
| --- | --- | --- | --- | --- | --- |
| AACUAAA (ssRNA) [Ads] | binds | – | – | – | – |
| AUAACUA (ssRNA) [Aus (FAM)] | – | binds | 22 | 16.8 | binding signal (Hfq N28A [1]): ~6 fold weaker than WT |
| AUAACUA (ssRNA) [Aus] | binds | – | – | – | – |
| AACUAAA (ssRNA) [Ads (FAM)] | – | binds | – | 92.8 | binding result (Hfq N28A [4]): binds; Kd (Hfq WT [5]): 1490 nM |
| AAUAACUAAA (ssRNA) [OxyS 65-74 10-nt] | – | – | 13 | – | – |
| AAAAAAA (ssRNA) [A7 (FAM)] | – | – | – | – | binding signal (Hfq N28A [6]): ~40 fold weaker than WT; binding signal (Hfq N48A [7]): ~27 fold weaker than WT |
